In the RNAGym collection of RNA variant scans (doi:10.7554/elife.90254):

B1: LINE1-mini (parent)
chain: GGCAGAGCUCAACACAGCGUGGCAAAGUGGCUGUGGCUAGACUGCC

Variants of: B1
Assay: self-cleavage, relative activity (ratio to wild type); higher = more cleavage; in vitro, sequencing; the parent is a self-cleaving ribozyme

Row | Variant | self-cleavage
1 | U32C | 0.2
2 | G19A A25G | 0.58
3 | G7A A24C | 0.12
4 | G2U C37U | 0.05
5 | U20C U38A | 0.19
6 | G2C A39G | 0.09
7 | G21C G30U | 1.1
8 | U20A G22U | 0.91
9 | C23G C37U | 0.02
10 | A14G C18A | 0.2
11 | A11G U32C | 0.04
12 | A11U G27A | 0.16
13 | G19A A24U | 2.05
14 | A4U G40U | 0.14
15 | A24C G29U | 0.87
16 | G35U U38G | 0.03
17 | A16G C45A | 0.14
18 | A25U G33U | 0.13
19 | G7A G21U | 0.24
20 | A11U C45U | 0.23
21 | C10U G29A | 0.18
22 | A14C G30A | 0.21
23 | U43C C45G | 0.1
24 | C23A C45A | 1.12

Row | Variant | self-cleavage
25 | C31G U34G | 0.04
26 | A24C U34C | 0.12
27 | A16G U43G | 0.08
28 | G33C U34G | 0.07
29 | C3G A26G | 0.36
30 | C3G A39G | 0.56
31 | G19U C45U | 1.38
32 | G21C U38C | 0.48
33 | A14U U28A | 0.14
34 | A25C G40U | 0.08
35 | G7A G35A | 0.3
36 | G7A G35U | 0.11
37 | G2U G17A | 0.03
38 | C37A A41U | 0.08
39 | G2A U28G | 0.48
40 | A12G C46G | 0.05
41 | A14C A41C | 0.04
42 | C13U G44U | 0.1
43 | A6U C23U | 0.89
44 | C10A A39C | 0.05
45 | G33C C45A | 0.04
46 | C13G C42A | 0.07
47 | U38C G40C | 0.06
48 | C13G C31G | 0.05

Row | Variant | self-cleavage
49 | G30U G33A | 0.08
50 | A12G A41U | 0.04
51 | C18G U34G | 0.02
52 | A26U G40U | 0.13
53 | A4G G17U | 0.18
54 | G7A A25U | 0.25
55 | C13G G33C | 0.04
56 | C13U G33U | 0.06
57 | U32A U38A | 0.09
58 | U28G G40C | 0.07
59 | G19A A41C | 0.08
60 | C3A G29U | 0.71
61 | G21A G36C | 0.1
62 | C23A G27C | 0.81
63 | G5U C31A | 0.04
64 | G5A C31A | 0.08
65 | G29U G30A | 1.92
66 | G21U U38G | 0.04
67 | U38C C46G | 0.64
68 | A39G G40A | 0.05
69 | A6U C45U | 1.18
70 | A16C G33C | 0.05
71 | A26G C37G | 0.03
72 | G2U G27U | 0.06

Row | Variant | self-cleavage
73 | A12U G27A | 0.3
74 | A12C G33C | 0.01
75 | A12G A16U | 0.05
76 | A16C G44U | 0.07
77 | A11G C18U | 0.04
78 | A26U U38G | 0.03
79 | A16U U38A | 0.1
80 | A26C U34G | 0.32
81 | A11C U38G | 0.02
82 | G19C C31A | 0.63
83 | C13U A39C | 0.13
84 | C13G G40A | 0.13
85 | A41U G44C | 0.49
86 | C13G G36C | 0.08
87 | U9G G44A | 0.12
88 | C3U G35C | 0.11
89 | U28C G36C | 0.28
90 | G19A U43G | 0.06
91 | A12C C46A | 0.02
92 | G19A C42U | 0.43
93 | U9G A25G | 0.06
94 | A24U G44A | 0.44
95 | C15G U38A | 0.03
96 | G1A C8G | 0.41

Row | Variant | self-cleavage
97 | G2C C8U | 0.18
98 | U20G A25U | 1.21
99 | C8A C18A | 0.37
100 | G2A A11G | 0.08
101 | C10A C31G | 0.03
102 | C15G C31U | 0.04
103 | G5U A41G | 0.06
104 | C10G A24G | 0.1
105 | G2U A41G | 0.09
106 | C10U G35U | 0.05
107 | G36C U43C | 0.04
108 | C10G G36C | 0.03
109 | A6U A11G | 0.04
110 | G21U A24G | 1.37
111 | U9A A39C | 0.17
112 | G33U C46G | 0.07
113 | C13U C46U | 0.3
114 | C3U A39U | 0.38
115 | C23G A25U | 0.72
116 | A16G G44U | 0.05
117 | G21A U38G | 0.03
118 | G17U G21A | 0.3
119 | G17U G21C | 1.31
120 | G27A G35C | 0.12

Row | Variant | self-cleavage
121 | A11G U38A | 0.02
122 | C37U U38G | 0.03
123 | C18A C46U | 0.65
124 | C23A U32C | 0.47
125 | C23A C37G | 0.02
126 | C8U C13U | 0.81
127 | G40C C46U | 0.08
128 | C3A G35A | 0.35
129 | U28C G30A | 0.96
130 | U20C G22A | 0.77
131 | U28C G29A | 0.37
132 | U38G G44U | 0.03
133 | C18G G35U | 0.08
134 | A11C A12G | 0.04
135 | G17A G33U | 0.02
136 | C13G A24U | 0.16
137 | A11U C18A | 0.07
138 | G21U G30A | 1.81
139 | A26G A41U | 0.54
140 | G33C G36U | 0.06
141 | G30A U38G | 0.03
142 | C3A G19U | 0.24
143 | A24U G35U | 0.38
144 | C3A A41G | 0.22

Row | Variant | self-cleavage
145 | A14C C31A | 0.07
146 | A12G C18U | 0.04
147 | C3G G19A | 0.59
148 | G22C A41C | 0.05
149 | G22C A41U | 0.72
150 | G22C U28C | 0.5
151 | A16G G40U | 0.05
152 | U38A G44U | 0.17
153 | G1A G22A | 0.94
154 | G19C G21A | 0.51
155 | G22U A24U | 1.4
156 | G22U A24G | 1.25
157 | A25G U38A | 0.46
158 | A16C C23U | 0.45
159 | C42A U43A | 0.15
160 | G7A A41G | 0.12
161 | G5A A12U | 0.09
162 | G7A U9C | 0.04
163 | G2U G33A | 0.03
164 | G1C U9C | 0.03
165 | A12U C45U | 0.27
166 | A14U G27C | 0.16
167 | A6C C10A | 0.11
